Measured values taken from patent US20160355583A1 (Novartis, published 2016).
Like-named read-outs stand apart in the source and are kept apart here.

T1: human BMP9 (BMP9/Growth Differentiation Factor 2 [Homo sapiens], NP_057288) (human, UniProt Q9UK05 320-429, limits assumed)
T1 sequence: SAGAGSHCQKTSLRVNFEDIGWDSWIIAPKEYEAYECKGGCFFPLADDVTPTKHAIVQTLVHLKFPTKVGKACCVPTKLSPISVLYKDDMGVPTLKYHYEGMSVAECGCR

T2: cyno BMP9 (cyno, UniProt G7PEU8 320-429)
T2 sequence: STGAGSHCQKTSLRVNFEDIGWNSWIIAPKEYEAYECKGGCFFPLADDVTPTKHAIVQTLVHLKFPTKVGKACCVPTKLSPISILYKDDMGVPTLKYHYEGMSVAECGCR

T3: mouse BMP9 (mouse, UniProt Q9WV56 319-428, limits assumed)
T3 construct: also called murine BMP9; mouse BMP9 (iPROT101715)
T3 sequence (looked up): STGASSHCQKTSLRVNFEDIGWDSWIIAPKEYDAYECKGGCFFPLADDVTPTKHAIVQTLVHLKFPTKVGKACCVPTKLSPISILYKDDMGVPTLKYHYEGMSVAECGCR

T4: human BMP10 (Bone Morphogenetic Protein 10 Preproprotein [Homo sapiens], NP_055297) (human, UniProt O95393 317-424)
T4 construct: Bought recombinant protein; also called huBMP10; rhBMP10 (R&D Cat#2926-BP-025)
T4 sequence: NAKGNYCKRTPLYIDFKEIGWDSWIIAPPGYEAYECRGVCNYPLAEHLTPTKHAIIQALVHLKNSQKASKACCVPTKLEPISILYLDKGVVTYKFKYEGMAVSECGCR

T5: rat BMP9 (rat, UniProt M0RB87 320-430, The mature growth factor is a disulfide-linked homodimer. One copy of the polypeptide is given.)
T5 construct: also called rat BMP9 (R&D Systems 5566-BP); rat BMP9 condition medium
T5 sequence: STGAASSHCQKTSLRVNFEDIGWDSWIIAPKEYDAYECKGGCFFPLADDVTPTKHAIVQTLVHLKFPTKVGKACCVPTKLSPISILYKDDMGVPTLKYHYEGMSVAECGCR

T6: human BMP7 (human, UniProt P18075 293-431)
T6 construct: Bought recombinant protein; also called huBMP7; rhBMP7 (R&D Cat#354-BP-010)
T6 sequence (looked up): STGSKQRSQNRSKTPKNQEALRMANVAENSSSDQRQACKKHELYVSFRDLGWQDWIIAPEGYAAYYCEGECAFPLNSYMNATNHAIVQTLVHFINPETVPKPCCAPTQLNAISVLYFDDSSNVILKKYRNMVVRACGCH

B1: Antibody BMP9-7: MOR023787 (antibody, human IgG1, lambda, V domains shown)
VH: QVQLVESGGGLVKPGGSLRLSCAASGFTFSSAWMSWVRQAPGKGLEWVGHIKSKTYGGTIDYAAPVKGRFTISRDDSKNTLYLQMNSLKTEDTAVYYCARVGGYYGYGYAFAYWGQGTLVTVSS
VL: SYELTQPLSVSVALGQTARITCSGDNIGDKYVSWYQQKPGQAPVLVIYDDNKRPSGIPERFSGSNSGNTATLTISRAQAGDEADYYCSSTASKSFNVFGGGTKLTVLG
notes: Fully human, phage display
B2: Antibody BMP9-3: MOR023795 (antibody, human IgG1, lambda, V domains shown)
VH: EVQLVQSGAEVKKPGESLKISCKGSGYSFTTYWIGWVRQMPGKGLEWMGIIYPEGSYTTYSPSFQGQVTISADKSISTAYLQWSSLKASDTAMYYCARGKRVDASSFDYWGQGTLVTVSS
VL: QSVLTQPPSVSGAPGQRVTISCSGSSSNIGDNYVSWYQQLPGTAPKLLIYRNNKRPSGVPDRFSGSKSGTSASLAITGLQAEDEADYYCSSTDKEHLVFGGGTKLTVLG
notes: Fully human, phage display
B3: Antibody BMP9-2: MOR022962 (antibody, human IgG1, kappa, V domains shown)
VH: QVQLLESGGGLVQPGGSLRLSCAASGFTFSSYAMSWVRQAPGKGLEWVSITLGTGHTHYADSVKGRFTISRDNSKNTLYLQMNSLRAEDTAVYYCARGSYIIWSALDYWGQGTLVTVSS
VL: DIQMTQSPSSLSASVGDRVTITCRASQDIRSYLNWYQQKPGKAPKLLIYDASNLQSGVPSRFSGSGSGTDFTLTISSLQPEDFATYYCQQSDTSPLTFGQGTKVEIKR
B4: Antibody BMP9-9: MOR023796 (antibody, human IgG1, lambda, V domains shown)
VH: QVQLVQSGAEVKKPGSSVKVSCKASGGTFSDYAIHWVRQAPGQGLEWMGGIIPFFGTAYYAQKFQGRVTITADESTSTAYMELSSLRSEDTAVYYCARRIVSDSVAVQYRHAFDPWGQGTLVTVSS
VL: QSVLTQPPSVSGAPGQRVTISCSGSSSNIGSNYVYWYQQLPGTAPKLLIYGNNNRPSGVPDRFSGSKSGTSASLAITGLQAEDEADYYCNAWDTKAYVWVFGGGTKLTVLG
notes: Fully human, phage display
B5: Antibody BMP9-5: AM1900 (antibody, human IgG1, kappa, V domains shown)
VH: QVQLVQSGAEVKKPGASVKVSCKASGYTFTRYWMHWVRQAPGQGLEWMGEINPSQGGTNYNEKFKSRVTMTVDKSISTAYMELSRLRSDDTAVYYCAIGANYGGLVYWGQGTLVTVSS
VL: EIVLTQSPATLSLSPGERATLSCRASESLDNYGISFMNWFQQKPGQAPRFLIYAASNQGSGIPARFSGSGSGTDFTLTISSLQPEDTAVYFCQQSKEVPRTFGGGTKVEIKR
B6: Antibody BMP9-8: MOR023793 (antibody, human IgG1, kappa, V domains shown)
VH: QVQLVQSGAEVKKPGASVKVSCKASGYTFTSYYMNWVRQAPGQGLEWMGWINPVQGNTNYAQKFQGRVTMTRDTSISTAYMELSRLRSEDTAVYYCARNYFDVWGQGTLVTVSS
VL: DIQMTQSPSSLSASVGDRVTITCRASQTISNFLAWYQQKPGKAPKLLIYAASNLQSGVPSRFSGSGSGTDFTLTISSLQPEDFAVYYCQQLYAESITFGQGTKVEIKR
notes: Fully human, phage display

What was measured:
[1] = molecular target: T1, human BMP9 (BMP9/Growth Differentiation …); assay: cell-based or functional assay
[2] = molecular target: T1, human BMP9 (BMP9/Growth Differentiation …); assay: MSD-SET solution equilibrium titration
Experimental: (§1) The amount of free Fab binding sites was determined by transferring the mixtures on antigen-coated plates and a brief incubation. The free Fab was consequently bound to the plate and detected with a detection antibody after a washing step for removing Fab-antigen complexes. The resulting signal was plotted versus the antigen concentration; and the KD was accurately determined by non-linear curve fitting.
(§2) A 22 serial 2ⁿ dilution of the antigens (human BMP9 (GD-43-KS00); cyno BMP9, rat BMP9 (R&D Systems 5566-BP) or mouse BMP9 (iPROT101715)) was prepared in incubation buffer (PBS (Teknova Cat#P0195) containing 0.5% BSA (Sigma Cat#A7906-500G) and 0.02% Tween-20 (VWR Cat#437082Q)). A constant concentration of the Fab was added. A volume of 60 ul of each antigen:Fab mix was distributed in duplicates to a 384-well polypropylene microtiter plate (PP MTP, Greiner Cat#781280). Incubation buffer served as negative control and a sample containing no antigen served as positive control (Bₘₐₓ). The plate was sealed and incubated overnight (O/N) at room temperature (RT).
(§3) A 384-well standard MSD array plate (Meso Scale Discovery Cat#L21XA) was coated with 30 ul/well human BMP9 diluted in PBS as capture agent and incubated O/N at 4° C. After washing for 3 times with 70 ul/well washing buffer (TBS (Teknova Cat#T1680) with 0.05% Tween-20), the plate was blocked with 50 ul/well blocking buffer (PBS with 5% BSA) for 1 hour at RT. After washing, a volume of 30 ul/well of the antigen:Fab mix was transferred from the PP MTP to the coated MSD plate and incubated for 20 min at RT. After an additional wash step, 30 ul of detection antibody (Goat anti-human Fab specific (Jackson Immuno Research Cat#109-005-097) conjugated with MSD SULFO-TAG NHS Ester (Meso Scale Discovery Cat#R91AN-1)) diluted 1:1000 in incubation buffer was added to each well and incubated for 30 min at RT. The MSD plate was washed and 35 ul/well of read buffer (MSD Read Buffer T 4×, Meso Scale Discovery Cat#R92TC-1) was added and then incubated for 5 min at RT. ECL signals were measured with the MSD SECTOR Imager 6000. The data was evaluated with XLfit (IDBS) software following a 1:1 fit model for Fab (according to Piehler et al., 1997).

cyno BMP9 = molecular target: T2, cyno BMP9; assay: MSD-SET solution equilibrium titration
Experimental: as §1, §2, §3

mouse BMP9 = molecular target: T3, mouse BMP9; assay: MSD-SET solution equilibrium titration
Experimental: as §1, §2, §3

[3] = molecular target: T1, human BMP9 (BMP9/Growth Differentiation …); assay: blocking ELISA; competitor Type I BMP receptor (AlkI)
Experimental: (§4) Blocking ELISA was used to identify positive clones that can inhibit the interactions between BMP9 and its receptors. Four different recombinant BMP9 receptors can be used: human Alk1-Fc (R&D system, 370-AL-100); human BMPRII-Fc (R&D system, 811-BR-100); human ActRIIA-Fc (R&D system, 340-R2-100); human ActRIIB-Fc (R&D system).
(§5) The blocking activity of antibody sample to specific ligand/receptor combination was measured by ELISA. In brief, 50 ul of receptor at a concentration of 1 ug/ml in coating buffer (PBS) was added into 96 well ELISA plates at 4° C. overnight, followed by washing with PBST one time. ELISA plates were blocked with 200 ul blocking buffer (PBST containing 1% BSA) in each well and then incubated at room temperature (RT) for 1 hour, followed by washing with PBST for 3 times. Diluted antibody sample was mixed with biotinylated human BMP9 (bio-hBMP9 of 1 ug/ml) and incubated at RT for 45 minutes. The mixture of antibody and bio-hBMP9 was added to the plates of 50 ul/well and then incubated at RT for 30 minutes, followed by washing with PBST for 3 times. 50 ul Poly-HRP Streptavidin (Thermofisher, 21140) was added to each well of the plates and incubated at RT for 30 minutes, followed by washing with PBST for 5 times. Finally, 50 ul of TMB reagent (Invitrogen 002023) and 50 ul of 1N HCl (Invitrogen SS01100) were added to each well to stop the reaction. Absorbance of each well was read at 450 nm to get readout OD₄₅₀.

[4] = molecular target: T4, human BMP10 (Bone Morphogenetic Protein …); assay: Table 7 (caption: MSD-SET; Example 6 describes Biacore SPR on immobilised rhBMP10, Fab 31.25-1000 nM)
rat BMP9 = molecular target: T5, rat BMP9; assay: MSD-SET solution equilibrium titration
Experimental: as §1, §2, §3

[5] = molecular target: T1, human BMP9 (BMP9/Growth Differentiation …); assay: blocking ELISA; competitor Type II BMP receptor (ActRIIB, BMPRII)
Experimental: as §4, §5

[6] = molecular target: T1, human BMP9 (BMP9/Growth Differentiation …); assay: cell-based or functional assay; remark: listed apart in the source
human BMP2 = molecular target: T7, human BMP2 (human, UniProt P12643 283-396); assay: table caption: MSD-SET; Example 6 describes Biacore SPR for BMP2, BMP7, BMP10
T7 construct: Bought recombinant protein; also called huBMP2; rhBMP2 (R&D Cat#355-BM-010)

human BMP7 = molecular target: T6, human BMP7; assay: as above
[7] = molecular target: T4, human BMP10 (Bone Morphogenetic Protein …); assay: Table 5 (caption: MSD-SET; Example 6 describes Biacore SPR on immobilised rhBMP10, Fab 31.25-1000 nM)

T7 sequence (P12643 283-396 limits assumed): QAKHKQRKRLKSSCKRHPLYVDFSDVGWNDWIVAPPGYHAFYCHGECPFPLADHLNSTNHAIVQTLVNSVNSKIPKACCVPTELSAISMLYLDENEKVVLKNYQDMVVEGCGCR

| Binder | RGA IC50 [pM] (HEK293T BRE-Luc reporter gene assay) [1] | Kd [2] [nM] | Kd (cyno BMP9) [nM] | Kd (mouse BMP9) [nM] | IC50 [3] [nM] | binding result [4] | Kd (rat BMP9) [nM] | IC50 [5] [nM] | RGA IC50 [pM] (HEK293T BRE-Luc reporter gene assay) [6] | Kd (human BMP2) [nM] | Kd (human BMP7) [nM] | binding result [7] |
| --- | --- | --- | --- | --- | --- | --- | --- | --- | --- | --- | --- | --- |
| B1 | 118 | 0.2 | 0.35 | 0.74 | ≤ 1 | no binding |  |  |  |  |  |  |
| B2 | 167 | 0.288 | 0.262 | 0.059 |  | no binding | 0.069 | ≤ 1 |  |  |  |  |
| B3 | 138 | 0.012 | 0.018 | 0.005 | ≤ 1 | no binding | 0.006 |  |  |  |  |  |
| B4 | 130 | 0.44 | 0.13 | 0.42 |  | no binding |  | ≤ 1 |  |  |  |  |
| B5 |  | 0.054 |  |  |  |  | 0.046 | ≤ 1 | 100 | 999 | 108 | no binding |
| B6 | 113 | 0.12 | 0.24 | 0.44 |  | no binding |  | ≤ 1 |  |  |  |  |
